One block for each binder: values may come before it.
Key:
human EGFR on cells [1] = target: T1, human EGFR on cells (human, UniProt P00533 25-1210); experiment: flow cytometry on OE21 cells; x axis PE-A [D]
T1 construct: also called membrane-associated EGFR on OE21 cells

human EGFR-FLAG-Fc [2] = target: T2, human EGFR-FLAG-Fc (human, UniProt P00533 25-638); experiment: phage ELISA on immobilized EGFR-Fc (Example 5)
T2 construct: also called human EGFR-Fc

mouse TfR on CHO cells = target: T3, mouse TfR on CHO cells (mouse, UniProt Q62351 1-763); experiment: flow cytometry on mouse TfR/CHO cells
T3 construct: also called mouse TfR/CHO
Description: Subsequently, an epitope analysis for various types of TfR antibodies was carried out.

[3] = target: T4, huTfR with mouse apical domain (human/mouse chimera, UniProt P02786 89-760); experiment: ELISA on immobilized chimeric TfR
T4 construct: His tag added; also called chimeric protein of human TfR extracellular domain with mouse apical domain
T4 chain: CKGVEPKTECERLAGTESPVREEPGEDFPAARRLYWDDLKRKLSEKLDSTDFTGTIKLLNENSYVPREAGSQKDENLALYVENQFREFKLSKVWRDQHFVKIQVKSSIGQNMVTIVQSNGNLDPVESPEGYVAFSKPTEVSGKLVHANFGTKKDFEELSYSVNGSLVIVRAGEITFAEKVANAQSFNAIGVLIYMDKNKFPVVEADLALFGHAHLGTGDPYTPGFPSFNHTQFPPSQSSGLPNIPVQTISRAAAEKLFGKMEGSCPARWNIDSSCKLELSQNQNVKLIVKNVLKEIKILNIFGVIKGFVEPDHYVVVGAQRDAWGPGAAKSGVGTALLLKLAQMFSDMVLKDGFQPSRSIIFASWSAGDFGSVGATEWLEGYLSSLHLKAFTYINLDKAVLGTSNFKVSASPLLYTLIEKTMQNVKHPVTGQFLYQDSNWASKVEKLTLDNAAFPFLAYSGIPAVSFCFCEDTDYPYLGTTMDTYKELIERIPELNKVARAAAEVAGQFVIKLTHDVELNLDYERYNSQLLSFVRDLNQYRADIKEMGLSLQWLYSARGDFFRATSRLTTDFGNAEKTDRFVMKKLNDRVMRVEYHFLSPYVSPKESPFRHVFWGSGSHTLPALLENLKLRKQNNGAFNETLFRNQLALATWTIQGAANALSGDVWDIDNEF
Description: (§1) ELISA was carried out by the following method. To a 96-well immunoplate (NUNC, Inc.) on which an antigen protein was immobilized, 1% (w/v) BSA-PBS(−) pH 7.0 without KCl (hereinafter referred to as blocking solution, Nacalai Tesque, Inc.) was added to perform blocking at room temperature, and thereafter, the anti-TfR antibody diluted with the same solution was added thereto and a reaction was allowed to proceed at room temperature for 1 hour. Thereafter, washing was performed with 0.05% (w/v)-tPBS (1×) without KCl (pH 7.2) (hereinafter referred to as washing solution, Nacalai Tesque, Inc.), Anti-Human IgG (Fc) Goat IgG Fab″-HRP (IBL, Inc.) diluted with the blocking solution was added thereto, and a reaction was allowed to proceed at room temperature for 1 hour. Thereafter, washing was performed with the washing solution, and 1-Step (registered trademark) Ultra TMB-ELISA Substrate Solution (Thermo, Inc.) was added thereto, and a reaction was allowed to proceed at room temperature. The coloring reaction was stopped by adding a 5 N HCl solution, and an absorbance at a wavelength of 450 nm (reference wavelength: 570 nm) was measured using a plate reader (EPOCH 2: BioTek Instruments, Inc.).
(§2) Further, a value obtained by subtracting the absorbance at the reference wavelength of 570 nm from the absorbance at a wavelength of 450 nm was regarded as the binding activity to any of various types of antigen proteins, and a case where a value obtained by dividing the binding activity to any of various types of chimeric TfR by the binding activity to His-huTfR was 0.5 or more was denoted by ++, a case where the value was 0.2 or more and less than 0.5 was denoted by +, and a case where the value was less than 0.2 was denoted by −.

chimeric TfR A02 = target: T5, chimeric TfR A02 (human/mouse chimera, UniProt P02786 89-760); experiment: ELISA on immobilized chimeric TfR
T5 construct: also called D352S-S355A-D356R-K358N
T5 chain: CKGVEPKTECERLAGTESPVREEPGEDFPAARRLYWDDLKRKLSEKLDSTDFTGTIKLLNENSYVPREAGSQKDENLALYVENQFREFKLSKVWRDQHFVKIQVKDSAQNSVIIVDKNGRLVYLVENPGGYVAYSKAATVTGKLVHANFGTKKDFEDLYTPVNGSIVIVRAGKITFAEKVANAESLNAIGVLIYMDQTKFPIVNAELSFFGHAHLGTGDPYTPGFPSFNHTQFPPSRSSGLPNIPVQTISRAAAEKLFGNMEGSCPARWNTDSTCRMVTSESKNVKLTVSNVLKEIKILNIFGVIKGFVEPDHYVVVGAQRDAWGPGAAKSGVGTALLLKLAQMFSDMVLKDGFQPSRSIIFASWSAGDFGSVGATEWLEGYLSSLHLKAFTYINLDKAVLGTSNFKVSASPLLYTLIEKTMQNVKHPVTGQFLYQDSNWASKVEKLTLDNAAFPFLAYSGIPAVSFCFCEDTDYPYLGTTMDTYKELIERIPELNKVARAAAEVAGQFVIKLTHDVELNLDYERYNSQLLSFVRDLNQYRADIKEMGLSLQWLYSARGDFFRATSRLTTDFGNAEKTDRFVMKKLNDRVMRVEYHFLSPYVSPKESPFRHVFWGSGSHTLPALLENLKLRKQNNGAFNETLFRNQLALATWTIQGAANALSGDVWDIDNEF
Description: as §1, §2

chimeric TfR A07 = target: T6, chimeric TfR A07 (human/mouse chimera, UniProt P02786 89-760); experiment: ELISA on immobilized chimeric TfR
T6 construct: also called M365L-V366E-E369Q
Description: as §1, §2

chimeric TfR A14 = target: T7, chimeric TfR A14 (human/mouse chimera, UniProt P02786 89-760); experiment: ELISA on immobilized chimeric TfR
T7 construct: also called D204Q-K205S-E369Q
Description: as §1, §2

monkey TfR on CHO cells = target: T8, monkey TfR on CHO cells (monkey); experiment: flow cytometry of monoclonal phage (scFv) on monkey TfR/CHO cells
T8 construct: also called monkey TfR/CHO cells
T8 chain: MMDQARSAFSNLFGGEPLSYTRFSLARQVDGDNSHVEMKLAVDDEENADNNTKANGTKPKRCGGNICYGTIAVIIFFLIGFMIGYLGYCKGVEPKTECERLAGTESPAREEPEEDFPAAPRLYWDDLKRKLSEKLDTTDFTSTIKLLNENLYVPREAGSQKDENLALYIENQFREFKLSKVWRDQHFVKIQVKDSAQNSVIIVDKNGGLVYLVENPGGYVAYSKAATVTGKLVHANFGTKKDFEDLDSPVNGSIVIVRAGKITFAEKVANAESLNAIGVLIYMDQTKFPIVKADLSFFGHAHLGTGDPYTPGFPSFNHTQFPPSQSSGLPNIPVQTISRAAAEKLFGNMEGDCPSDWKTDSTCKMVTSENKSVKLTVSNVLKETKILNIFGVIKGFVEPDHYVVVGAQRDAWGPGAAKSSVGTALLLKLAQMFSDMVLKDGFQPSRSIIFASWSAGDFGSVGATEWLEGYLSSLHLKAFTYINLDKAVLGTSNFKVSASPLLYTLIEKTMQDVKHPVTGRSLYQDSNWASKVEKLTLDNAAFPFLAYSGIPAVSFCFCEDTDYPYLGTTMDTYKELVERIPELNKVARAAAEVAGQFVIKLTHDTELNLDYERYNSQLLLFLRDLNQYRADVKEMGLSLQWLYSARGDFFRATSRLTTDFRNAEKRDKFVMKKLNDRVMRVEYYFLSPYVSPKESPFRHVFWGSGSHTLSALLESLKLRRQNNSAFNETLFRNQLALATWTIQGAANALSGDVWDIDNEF
Description: After the reaction was allowed to proceed under 4° C. for 30 minutes, each well was washed 3 times with PBS-T.

[4] = target: T9, huTfR with mouse protease-like domain (human/mouse chimera); experiment: ELISA on immobilized chimeric TfR; grade = binding relative to His-huTfR (++ 0.5 or more, + 0.2 to less than 0.5)
T9 construct: His tag added; also called chimeric protein of human TfR extracellular domain with mouse protease-like domain
T9 chain: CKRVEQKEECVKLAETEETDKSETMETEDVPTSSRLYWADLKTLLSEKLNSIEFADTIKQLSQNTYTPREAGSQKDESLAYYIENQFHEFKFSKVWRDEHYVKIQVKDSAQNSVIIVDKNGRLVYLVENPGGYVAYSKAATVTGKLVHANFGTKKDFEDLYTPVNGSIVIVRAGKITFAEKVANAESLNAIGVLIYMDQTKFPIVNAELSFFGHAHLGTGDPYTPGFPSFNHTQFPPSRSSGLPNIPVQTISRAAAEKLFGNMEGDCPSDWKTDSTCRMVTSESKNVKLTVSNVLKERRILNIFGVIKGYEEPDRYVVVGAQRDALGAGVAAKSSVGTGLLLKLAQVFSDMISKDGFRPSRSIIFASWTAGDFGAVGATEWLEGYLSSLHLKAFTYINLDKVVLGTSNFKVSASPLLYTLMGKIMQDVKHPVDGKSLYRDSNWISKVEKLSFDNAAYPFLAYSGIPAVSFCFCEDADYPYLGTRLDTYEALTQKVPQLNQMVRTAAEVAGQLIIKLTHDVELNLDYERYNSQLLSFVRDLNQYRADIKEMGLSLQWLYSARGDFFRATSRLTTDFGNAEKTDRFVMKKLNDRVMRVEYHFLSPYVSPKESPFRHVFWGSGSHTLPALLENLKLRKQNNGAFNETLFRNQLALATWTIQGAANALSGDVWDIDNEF
Description: as §1, §2

chimeric TfR A03 = target: T10, chimeric TfR A03 (human/mouse chimera, UniProt P02786 89-760); experiment: as above
T10 construct: also called D245E-K261E
Description: as §1, §2

chimeric TfR A04 = target: T11, chimeric TfR A04 (human/mouse chimera, UniProt P02786 89-760); experiment: as above
T11 construct: also called D245E-K261E-D356R
Description: as §1, §2

chimeric TfR A05 = target: T12, chimeric TfR A05 (human/mouse chimera, UniProt P02786 89-760); experiment: as above
T12 construct: also called P249S-L274F
Description: as §1, §2

human EGFR-FLAG-Fc [5] = target: T2, human EGFR-FLAG-Fc; experiment: phage ELISA (scFv) on immobilized human EGFR-Fc
Description: Specifically, it was carried out by adding a phage solution diluted with PBS-T containing 10% Block Ace (manufactured by Dainippon Pharmaceutical Co., Ltd.) to a 96-well immunoplate (NUNC, Inc.) on which an antigen protein was immobilized to allow a reaction to proceed at room temperature for 1 hour, followed by washing with PBS-T, and then, adding an anti-M13 antibody (manufactured by GE Healthcare, Inc.) labeled with horseradish peroxidase diluted with 1% BSA-PBS thereto to allow a reaction to proceed at room temperature for 1 hour.
The confirmation of a clone that specifically recognizes human and monkey EGFR-Fc was carried out by the ELISA method.

monkey EGFR-FLAG-Fc = target: T13, monkey EGFR-FLAG-Fc (monkey, UniProt P55245 25-638); experiment: phage ELISA (scFv) on immobilized monkey EGFR-Fc
T13 construct: also called monkey EGFR-Fc; not shown: FLAG-Fc added to the C terminus

human EGFR on cells [6] = target: T1, human EGFR on cells; experiment: flow cytometry on OE21 cells; x axis Alexa Fluor 488-A [C]

binding result (mouse TfR on CHO cells): no binding
ratio of ELISA binding activity (A450-A570) to chimeric TfR over that to His-huTfR [3]: < 0.2 ratio
ratio of ELISA binding activity (A450-A570) to chimeric TfR over that to His-huTfR (chimeric TfR A02): < 0.2 ratio
ratio of ELISA binding activity (A450-A570) to chimeric TfR over that to His-huTfR (chimeric TfR A07): < 0.2 ratio
ratio of ELISA binding activity (A450-A570) to chimeric TfR over that to His-huTfR (chimeric TfR A14): < 0.2 ratio
binding result (monkey TfR on CHO cells): binds
ratio of ELISA binding activity (A450-A570) to chimeric TfR over that to His-huTfR [4]: ≥ 0.5 ratio
ratio of ELISA binding activity (A450-A570) to chimeric TfR over that to His-huTfR (chimeric TfR A03): ≥ 0.5 ratio
ratio of ELISA binding activity (A450-A570) to chimeric TfR over that to His-huTfR (chimeric TfR A04): 0.2 to 0.5 ratio
ratio of ELISA binding activity (A450-A570) to chimeric TfR over that to His-huTfR (chimeric TfR A05): ≥ 0.5 ratio
B3: cyno186 (antibody, V domains shown)
VH: QVQLVESGGEFVQPGGSLRLSCAASGFPFKGYAMNWVRQAPGKGLEWVSRISNGGSYIDYADSVKGRFTISRDNSKNTLYLQIDSLRTEDTAVYYCAKAKDAYRWNNAIDEWGQGTLVTVSS
VL: not shown
notes: also called anti-TfR antibody cyno186

binding result (human EGFR-FLAG-Fc [5]): binds
binding result (monkey EGFR-FLAG-Fc): binds
binding result (human EGFR on cells [6]): binds
B4: E17 (antibody, V domains shown)
VH: QVQLQQWGAGLLKPSETLSLTCALYSGSFSAQDWSWIRQSPEKGLEWIGEIWQGGKTNYNPSLKSRVSISRDNSKNQLSLQLSSVTAADTAVYYCARVDWSYRVFEIWGQGTMVTVSS
VL: not shown
notes: also called anti-EGFR antibody E17

The remaining lines, values behind:

B1: KME07 (antibody, V domains shown)
VH: QVQLVQSGAEVKKPGSSVKVSCKASGGTFSSFAFGWVRQAPGQGLEWMGEVRPGFGTEILTQNFQDRVTITADESTSTTYMELRSLKSEDTAVYYCARGLLRGGYIENPFEIWGQGTLVTVSS
VL: DIQMTQSPSSLSASVGDRVTITCRASQGISSWLAWYQQKPEKAPKSLIYAASSLQSGVPSRFSGSGSGTDFTLTISSLQPEDFATYFCQQYYNYPYTFGQGTKLEIK
notes: IgG4PE or IgG4PE R409K; also called anti-EGFR antibody KME07
binding result (human EGFR on cells [1]): binds

B2: KME11 (antibody, V domains shown)
VH: QVQLVQSGAEVKKPGSSVKVSCKASGGTLSTYGITWVRQAPGQGFAWMGEIIPSLGIVNYAQKFQGRVTITADESTSTVYMELSSVTYEDTAVYYCAGDELSEGHSEYYHGMDVWGQGTTVTVSS
VL: DIQMTQSPSSLSASVGDRVTITCRASQGISSWLAWYQQKPEKAPKSLIYAASSLQSGVPSRFSGSGSGTDFTLTISSLQPEDFATYFCQQYYNYPYTFGQGTKLEIK
notes: IgG4PE or IgG4PE R409K; also called anti-EGFR antibody KME11; KME1l
binding result (human EGFR-FLAG-Fc [2]): binds

From patent publication US20220017635A1 (Kyowa Kirin, published 2022)
